Data from paper PMC2048530.

Biological target: DC-SIGN-Fc (human) (UniProt Q9NNX6)
Sequence of UniProt Q9NNX6 (Q9NNX6 59-404): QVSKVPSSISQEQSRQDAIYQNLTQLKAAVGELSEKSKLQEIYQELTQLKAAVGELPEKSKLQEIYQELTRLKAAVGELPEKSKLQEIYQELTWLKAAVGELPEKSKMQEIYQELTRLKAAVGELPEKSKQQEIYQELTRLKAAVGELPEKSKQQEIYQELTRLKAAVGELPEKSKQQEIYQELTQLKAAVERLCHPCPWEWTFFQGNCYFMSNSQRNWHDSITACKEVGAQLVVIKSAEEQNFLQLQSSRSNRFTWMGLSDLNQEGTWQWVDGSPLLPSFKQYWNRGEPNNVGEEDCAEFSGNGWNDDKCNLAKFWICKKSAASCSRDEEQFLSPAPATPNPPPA

“HIV-1 JR-FL gp120 (recombinant monomeric gp120; mock-treated form M-gp120) (natural protein)” was tested, and the IL-10 induction in iMDDCs by JR-FL gp120 (3 μg/ml) at 24 h after pre-incubation of the cells with anti-DC-SIGN mAb AZN-D1 (40 μg/ml); DC-SIGN here is the whole receptor on MDDCs was 50 % reduction.
